For assay [1], the target named is T1, TPR1 domain of the Hop protein (Homo sapiens, UniProt P31948).
T1 construct: Codons 1-118 (TPR1) and 223-352 (TPR2A) of human Hop protein were cloned; hexahistidine (TEV-cleavable) (N, cleaved yes); made in house; host or cells: E. coli BL21 (DE3)
Description: Isothermal titration calorimetry, binding to TPR1 domain of Hop. As to conditions: ITC at 25° C. As to the method:
(§1) FIG. 6 is a plotting of the thermo-dynamic analysis of the interaction of TPR1 and TPR2A with the C-terminal sequences of Hsp70 and Hsp90. […] The sequence […] corresponds with the 12 C-terminal amino acid residues of Hsc70. […] corresponds with the 12 C-terminal amino acid residues of Hsp90.
(§2) 40-50 aliquots of 5•μl peptide solution (7.5 mM-15 mM) were titrated at 25° C. by injection into a 1.36 ml TPR1 (TPR2A) solution (450•M-950•M) into the chamber. Alternatively, a solution of 3 mM TPR1 (TPR2A) in 180•M C70 (C90) solution was titrated in the chamber. […] Typically, the injections were continued past the saturation limits in order to be able to determine the heat of the ligand solution. After subtracting the solution heat, the calorimetric data was analysed, where an assessment software was used, which is provided by the manufacturer (version 2.9; MicroCal Software, Inc.).
For orientation: In ITC the heat of successive injections is recorded.

The target of assay [2] is T2, TPR2A domain of the Hop protein (Homo sapiens, UniProt P31948).
T2 construct: Codons 1-118 (TPR1) and 223-352 (TPR2A) of human Hop protein were cloned; hexahistidine (TEV-cleavable) (N, cleaved yes); made in house; host or cells: E. coli BL21 (DE3)
T2 sequence (P31948 223-352): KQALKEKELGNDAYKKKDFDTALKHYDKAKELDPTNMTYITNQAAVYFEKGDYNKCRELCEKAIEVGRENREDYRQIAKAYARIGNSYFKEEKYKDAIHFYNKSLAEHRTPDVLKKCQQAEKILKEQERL
Description: Isothermal titration calorimetry, binding to TPR2A domain of Hop. As to conditions: ITC at 25° C. As to the method:
as §1, §2

Assay [3] has as its target T3, TPR1 domain of human Hop protein (codons 1-118) (human, UniProt P31948 4-118).
T3 construct: Expressed in E. coli with a removable N-terminal His6 tag, which was cleaved with TEV; It could not be checked that the entry is exactly residues 1-118; also called N-terminal TPR domain of Hop
Description: ITC, 25 °C. The procedure:
as §1
(§3) 40-50 aliquots of 5•μl peptide solution (7.5 mM-15 mM) were titrated at 25° C. by injection into a 1.36 ml TPR1 (TPR2A) solution (450•M-950•M) into the chamber. Alternatively, a solution of 3 mM TPR1 (TPR2A) in 180•M C70 (C90) solution was titrated in the chamber. The peptides were dissolved in and the proteins were dialysed against the buffer G (25 mM, pH 7.5, 100 mM Kac, 5 mM MgAc₂). Typically, the injections were continued past the saturation limits in order to be able to determine the heat of the ligand solution. After subtracting the solution heat, the calorimetric data was analysed, where an assessment software was used, which is provided by the manufacturer (version 2.9; MicroCal Software, Inc.).

Assay [4] concerns the target T4, TPR2A domain of human Hop protein (codons 223-352) (human, UniProt P31948 225-352).
T4 construct: Expressed in E. coli, His6 tag cleaved with TEV; A selenomethionine-labelled form was made for MAD phasing; also called TRP2A
Description: ITC, 25 °C. The procedure:
as §1, §3

Ends that are not written are not given here.

T1 sequence (P31948 1-118): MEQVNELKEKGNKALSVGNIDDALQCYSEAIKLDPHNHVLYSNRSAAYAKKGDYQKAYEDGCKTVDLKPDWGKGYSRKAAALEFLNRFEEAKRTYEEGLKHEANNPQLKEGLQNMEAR
T3 sequence (P31948 other isoform, or with tags, fused parts or gaps limits assumed): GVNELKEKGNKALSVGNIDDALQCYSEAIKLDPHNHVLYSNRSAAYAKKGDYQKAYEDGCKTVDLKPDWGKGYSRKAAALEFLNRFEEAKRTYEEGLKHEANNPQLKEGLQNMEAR
T4 sequence (P31948 other isoform, or with tags, fused parts or gaps limits assumed): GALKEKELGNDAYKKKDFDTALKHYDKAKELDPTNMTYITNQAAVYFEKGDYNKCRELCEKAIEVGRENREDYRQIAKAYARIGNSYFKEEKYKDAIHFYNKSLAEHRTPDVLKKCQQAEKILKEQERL

In the case of “C70: C-terminal fragment of human Hsp70 (codons 382-641), 25 kDa domain”, in assay [1] (binding to TPR1, listed as 25 kDa fragment of human Hsp70), the stoichiometry N – broadly, the number of molecules, sites or subunits per partner or assembly – is roughly 1.

Take “C90: C-terminal domain of human Hsp90 (codons 625-732), 12 kDa fragment including dimerisation domain and authentic C-terminal”: the “binding to TPR1, result in words” value in assay [1] is listed as “weak, non-specific binding”. The stoichiometry factor in assay [2] is roughly 1. “GASSGPTIEEVD [Hsp70 Dodekamer, C-terminal dodecamer of Hsp70]”: the “binding to TPR1, result in words” value in assay [1] is given as “same affinities”. The same measure, in the same setting: under “GSGGPTIEEVD [Hsc70 Dodekamer, peptide of the 12 C-terminal amino acid residues of Hsc70]” stands “same affinities”. Turning to Ac-EEVD (also called EEVD peptide; EEVD motif) [tetrapeptide EEVD], the Kd (in general, the free concentration of one partner at which half of the binding sites on the other are occupied at equilibrium, for simple one-to-one binding) is roughly 300 µM in assay [3] and 90 µM in assay [4]. For the molecule Ac-GPTIEEVD (also called structured octamer peptide) [Hsp70 peptide GPTIEEVD], the “fold increase in affinity (against the EEVD motif alone)” value in assay [3] came to 20 fold.

Consider Ac-PTIEEVD [C-terminal heptamer peptide of Hsc70], for which the Kd in assay [3] is 15 to 20 µM.

(Values after US20030138848A1, “3D structure of polypeptides containing a TPR-structure motif with chaperone-binding function, crystals thereof and compounds for inhibition of said polypeptides” (priority 2000, published 2003).)
